T1: SIP2 D1 (Plasmodium falciparum, UniProt C6KSN9 177-235)
T1 sequence: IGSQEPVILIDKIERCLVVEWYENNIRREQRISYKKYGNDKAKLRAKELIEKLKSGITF

B1: GTGCAC_negctrl_site701 (dsDNA)
DNA 1: ATTAATATGAAACGATTATAAGAAAGAAAAGAAATG
DNA 2: CATTTCTTTTCTTTCTTATAATCGTTTCATATTAAT
B2: GTGCAC_negctrl_site217 (dsDNA)
DNA 1: TGACTTTGTTGAATTTGTCCTCTTAACTCATAATAT
DNA 2: ATATTATGAGTTAAGAGGACAAATTCAACAAAGTCA
B3: GTGCAC_negctrl_site586 (dsDNA)
DNA 1: ATATGATTATTATTATATAAATTATAAAGTCTAATA
DNA 2: TATTAGACTTTATAATTTATATAATAATAATCATAT
B4: GTGCAC_site10664 (dsDNA)
DNA 1: TATTCATATTTAAAGGTGCAATATTTATTTTGTACA
DNA 2: TGTACAAAATAAATATTGCACCTTTAAATATGAATA
B5: GTGCAC_negctrl_site659 (dsDNA)
DNA 1: TTGTTAATATGATAAAAGAGGAATATTCTCTTCCTA
DNA 2: TAGGAAGAGAATATTCCTCTTTTATCATATTAACAA
B6: GTGCAC_negctrl_site608 (dsDNA)
DNA 1: TAATGAGGAAAAAGTGTGTTAAGATTTTATAATTTA
DNA 2: TAAATTATAAAATCTTAACACACTTTTTCCTCATTA
B7: GTGCAC_site9498 (dsDNA)
DNA 1: ATTTGTGATTTGTGTGTGCACGTATTTACAGAACAA
DNA 2: TTGTTCTGTAAATACGTGCACACACAAATCACAAAT
B8: GTGCAC_negctrl_site613 (dsDNA)
DNA 1: TACTCAAAAATTAATTAGCATAATATATATAAAAAT
DNA 2: ATTTTTATATATATTATGCTAATTAATTTTTGAGTA
B9: GTGCAC_negctrl_site458 (dsDNA)
DNA 1: ATGTAATTATAAGATTAATATACATAATTATATGTA
DNA 2: TACATATAATTATGTATATTAATCTTATAATTACAT
B10: GTGCAC_negctrl_site391 (dsDNA)
DNA 1: TTTTTTATTTTAATGTATTATTTTTATGTAATATAT
DNA 2: ATATATTACATAAAAATAATACATTAAAATAAAAAA
B11: GTGCAC_negctrl_site223 (dsDNA)
DNA 1: AAAAGATTAAGTAGAATAATGTTCTTTCCCAACATA
DNA 2: TATGTTGGGAAAGAACATTATTCTACTTAATCTTTT
B12: GTGCAC_negctrl_site491 (dsDNA)
DNA 1: TTTTTTATTTTTTACATATTTAGCTCATATTTATAT
DNA 2: ATATAAATATGAGCTAAATATGTAAAAAATAAAAAA
B13: GTGCAC_negctrl_site170 (dsDNA)
DNA 1: AATATATTTTGATATGAACAATTAATAATTTCAAAT
DNA 2: ATTTGAAATTATTAATTGTTCATATCAAAATATATT
B14: GTGCAC_negctrl_site665 (dsDNA)
DNA 1: TTTTAAATCTTATATTCCCCACATAAATAGCTCTCT
DNA 2: AGAGAGCTATTTATGTGGGGAATATAAGATTTAAAA
B15: GTGCAC_negctrl_site660 (dsDNA)
DNA 1: AATTAATTTATTTTATAAATAGTTAGATCGTCATAA
DNA 2: TTATGACGATCTAACTATTTATAAAATAAATTAATT
B16: GTGCAC_negctrl_site84 (dsDNA)
DNA 1: TTGAGCATAAAATTTGGAAACCTCAATCGGACAAAA
DNA 2: TTTTGTCCGATTGAGGTTTCCAAATTTTATGCTCAA
B17: GTGCAC_negctrl_site728 (dsDNA)
DNA 1: TTTTGTAAAATTAATTTATTATACATATATATTTCT
DNA 2: AGAAATATATATGTATAATAAATTAATTTTACAAAA
B18: GTGCAC_negctrl_site129 (dsDNA)
DNA 1: AATTTAATCCGTAATAAGAAAAGAAAAAAAAAAAGA
DNA 2: TCTTTTTTTTTTTCTTTTCTTATTACGGATTAAATT
B19: GTGCAC_site9800 (dsDNA)
DNA 1: AATCATATTAGTATGGTGCAATATATATATAAATAT
DNA 2: ATATTTATATATATATTGCACCATACTAATATGATT
B20: GTGCAC_negctrl_site278 (dsDNA)
DNA 1: TTTTTTACATACAGAAATATATAATATAAAATAAAT
DNA 2: ATTTATTTTATATTATATATTTCTGTATGTAAAAAA
B21: GTGCAC_negctrl_site669 (dsDNA)
DNA 1: AAAAAAAAGTATGATTCTAAATTTATGTATATATAA
DNA 2: TTATATATACATAAATTTAGAATCATACTTTTTTTT
B22: GTGCAC_negctrl_site43 (dsDNA)
DNA 1: ATTTATAAAATATAATTACATTTTTAAATAATAAAA
DNA 2: TTTTATTATTTAAAAATGTAATTATATTTTATAAAT
B23: GTGCAC_negctrl_site214 (dsDNA)
DNA 1: ACCCAAGAGAAAAGAGAAAGAAATATGTGTATATTG
DNA 2: CAATATACACATATTTCTTTCTCTTTTCTCTTGGGT
B24: GTGCAC_negctrl_site191 (dsDNA)
DNA 1: TTTTAAATTGGAGTGGGCAGATTGATATTATTCTTC
DNA 2: GAAGAATAATATCAATCTGCCCACTCCAATTTAAAA
B25: GTGCAC_negctrl_site296 (dsDNA)
DNA 1: ATTTAAAATAGAAGTTATATTTATATGGGTGAAAAA
DNA 2: TTTTTCACCCATATAAATATAACTTCTATTTTAAAT
B26: GTGCAC_negctrl_site670 (dsDNA)
DNA 1: TAAGACTATTAAAAAATTGAGTACATGAACTGTTCA
DNA 2: TGAACAGTTCATGTACTCAATTTTTTAATAGTCTTA
B27: GTGCAC_negctrl_site384 (dsDNA)
DNA 1: TTATAATGAAATATATTCTTATTCTTTTTTTTTTTT
DNA 2: AAAAAAAAAAAAGAATAAGAATATATTTCATTATAA
B28: GTGCAC_site10258 (dsDNA)
DNA 1: GCGTGTGTACAATGAGTGCATATCTAAAGGGAAGAT
DNA 2: ATCTTCCCTTTAGATATGCACTCATTGTACACACGC
B29: GTGCAC_negctrl_site490 (dsDNA)
DNA 1: TGTATAAAAAGAAAAAATCGTATGTGTTATCAAAAA
DNA 2: TTTTTGATAACACATACGATTTTTTCTTTTTATACA
B30: GTGCAC_negctrl_site45 (dsDNA)
DNA 1: TTATGTTGCGAGTTCTTAAGATATAAAAAATTCTTC
DNA 2: GAAGAATTTTTTATATCTTAAGAACTCGCAACATAA
B31: GTGCAC_negctrl_site108 (dsDNA)
DNA 1: TTGTTTAACTTGTTAAATATAATGTATCTGTGGATA
DNA 2: TATCCACAGATACATTATATTTAACAAGTTAAACAA
B32: GTGCAC_negctrl_site353 (dsDNA)
DNA 1: GAATATTTATGATGAACTATTAATTAATTTTACATA
DNA 2: TATGTAAAATTAATTAATAGTTCATCATAAATATTC
B33: GTGCAC_negctrl_site563 (dsDNA)
DNA 1: ATTCAATAATTGTTTTTTTTCTTTTTGTTTTTGTTT
DNA 2: AAACAAAAACAAAAAGAAAAAAAACAATTATTGAAT
B34: GTGCAC_negctrl_site647 (dsDNA)
DNA 1: ATCAGTGATTAGGTTATATATAAAAATGAACTAATA
DNA 2: TATTAGTTCATTTTTATATATAACCTAATCACTGAT
B35: GTGCAC_negctrl_site81 (dsDNA)
DNA 1: TTTATTAGATAACGATAAACGAAAAAAAAAAAATAA
DNA 2: TTATTTTTTTTTTTTCGTTTATCGTTATCTAATAAA
B36: GTGCAC_negctrl_site258 (dsDNA)
DNA 1: AATATTTTGTTATTTATTTAATCTAATATTATGATA
DNA 2: TATCATAATATTAGATTAAATAAATAACAAAATATT
B37: GTGCAC_negctrl_site283 (dsDNA)
DNA 1: ATAATTCCAAGAATTTCATATATCTGAATTTTAGGT
DNA 2: ACCTAAAATTCAGATATATGAAATTCTTGGAATTAT
B38: GTGCAC_negctrl_site292 (dsDNA)
DNA 1: TTACGTATGTATTATGTTGTATATGAAATTAAAAAA
DNA 2: TTTTTTAATTTCATATACAACATAATACATACGTAA

Molecular target: AP2-I D3 (Plasmodium falciparum, UniProt Q8IJW6 910-1027)
Assay: gcPBM; about 25 ug protein; PBS, 1% milk, 0.2 mg/ml BSA, salmon testes DNA, 0.03% Triton X-100
Conditions: tags: N-terminal GST (pGEX-4T-1), kept; label: surface-attached array probe

Binder	binding signal
B1	7.09 ln median PBM intensity, better of two orientations
B2	7.06 ln median PBM intensity, better of two orientations
B3	6.95 ln median PBM intensity, better of two orientations
B4	11.2 ln median PBM intensity, better of two orientations
B5	6.7 ln median PBM intensity, better of two orientations
B6	7.28 ln median PBM intensity, better of two orientations
B7	10.7 ln median PBM intensity, better of two orientations
B8	7.28 ln median PBM intensity, better of two orientations
B9	7.02 ln median PBM intensity, better of two orientations
B10	7.14 ln median PBM intensity, better of two orientations
B11	7.05 ln median PBM intensity, better of two orientations
B12	7.12 ln median PBM intensity, better of two orientations
B13	7.19 ln median PBM intensity, better of two orientations
B14	7.16 ln median PBM intensity, better of two orientations
B15	7.02 ln median PBM intensity, better of two orientations
B16	6.92 ln median PBM intensity, better of two orientations
B17	7.06 ln median PBM intensity, better of two orientations
B18	7.24 ln median PBM intensity, better of two orientations
B19	12 ln median PBM intensity, better of two orientations

Binder	binding signal
B20	7.19 ln median PBM intensity, better of two orientations
B21	7.05 ln median PBM intensity, better of two orientations
B22	7.13 ln median PBM intensity, better of two orientations
B23	7.02 ln median PBM intensity, better of two orientations
B24	7.28 ln median PBM intensity, better of two orientations
B25	7.29 ln median PBM intensity, better of two orientations
B26	7.11 ln median PBM intensity, better of two orientations
B27	7.14 ln median PBM intensity, better of two orientations
B28	10 ln median PBM intensity, better of two orientations
B29	6.98 ln median PBM intensity, better of two orientations
B30	7.08 ln median PBM intensity, better of two orientations
B31	7.12 ln median PBM intensity, better of two orientations
B32	6.76 ln median PBM intensity, better of two orientations
B33	6.85 ln median PBM intensity, better of two orientations
B34	7.28 ln median PBM intensity, better of two orientations
B35	7.19 ln median PBM intensity, better of two orientations
B36	6.98 ln median PBM intensity, better of two orientations
B37	6.92 ln median PBM intensity, better of two orientations
B38	7.28 ln median PBM intensity, better of two orientations

Molecular target: T1, SIP2 D1
Assay: as above
Conditions: tags: N-terminal GST (pGEX-4T-1), kept; label: surface-attached array probe

Binder	binding signal
B1	6.92 ln median PBM intensity, better of two orientations
B2	6.72 ln median PBM intensity, better of two orientations
B3	6.69 ln median PBM intensity, better of two orientations
B4	9.97 ln median PBM intensity, better of two orientations
B5	6.7 ln median PBM intensity, better of two orientations
B7	9.78 ln median PBM intensity, better of two orientations
B8	6.83 ln median PBM intensity, better of two orientations
B9	6.75 ln median PBM intensity, better of two orientations
B10	6.72 ln median PBM intensity, better of two orientations
B11	6.44 ln median PBM intensity, better of two orientations
B12	6.81 ln median PBM intensity, better of two orientations
B13	6.86 ln median PBM intensity, better of two orientations
B14	6.72 ln median PBM intensity, better of two orientations
B15	6.78 ln median PBM intensity, better of two orientations
B16	6.59 ln median PBM intensity, better of two orientations
B17	6.83 ln median PBM intensity, better of two orientations
B18	6.91 ln median PBM intensity, better of two orientations
B19	9.96 ln median PBM intensity, better of two orientations

Binder	binding signal
B20	6.9 ln median PBM intensity, better of two orientations
B21	6.9 ln median PBM intensity, better of two orientations
B22	6.72 ln median PBM intensity, better of two orientations
B23	6.82 ln median PBM intensity, better of two orientations
B24	6.81 ln median PBM intensity, better of two orientations
B26	6.86 ln median PBM intensity, better of two orientations
B27	6.7 ln median PBM intensity, better of two orientations
B28	9.38 ln median PBM intensity, better of two orientations
B29	6.88 ln median PBM intensity, better of two orientations
B30	6.87 ln median PBM intensity, better of two orientations
B31	6.74 ln median PBM intensity, better of two orientations
B32	6.72 ln median PBM intensity, better of two orientations
B33	6.64 ln median PBM intensity, better of two orientations
B34	6.8 ln median PBM intensity, better of two orientations
B35	6.8 ln median PBM intensity, better of two orientations
B36	6.61 ln median PBM intensity, better of two orientations
B37	6.91 ln median PBM intensity, better of two orientations
